Results: patent publication US10370436B2, “Anti-pseudomonas Psl binding molecules and uses thereof” (priority 2011, dated 2019)

Assays:
[1] = test system: luminescent P. aeruginosa serogroup 05 strain (PAO1.lux); test: Opsonophagocytosis killing (OPK) assay, PAO1.lux; format: cell-based, Pseudomonas aeruginosa; conditions: human IgG1 antibodies, differentiated HL-60 cells, baby rabbit serum, FIG. 2A
Protocol: This example describes the evaluation of prioritized human IgG1 antibodies to promote OPK of P. aeruginosa. […] OPK assays were performed as described in (DiGiandomenico, A., et al., Infect Immun 72, 7012-7021 (2004)), with modifications. Briefly, assays were performed in 96-well plates using 0.025 ml of each OPK component; P. aeruginosa strains; diluted baby rabbit serum; differentiated HL-60 cells; and monoclonal antibody. In some OPK assays, luminescent P. aeruginosa strains, which were constructed as described (Choi, K. H., et al., Nat Methods 2, 443-448 (2005)), were used. Luminescent OPK assays were performed as described above but with determination of relative luciferase units (RLUs) using a Perkin Elmer ENVISION Multilabel plate reader (Perkin Elmer).
This example describes two series of experiments evaluating the ability of PMB-mAb conjugates to promote OPK of P. aeruginosa. In the first experiments (FIGS. 15A-B), conjugate-mediated OPK activity by human HL-60 neutrophil cell line in the presence of rabbit complement was evaluated using P. aeruginosa strains expressing bacterial luciferase as described in Example 2. R347 was used as a negative control in these experiments. […] In the second series of experiments, reduction in luminescence following 2 h incubation relative to control lacking mAb was used to determine % killing.

[2] = test system: P. aeruginosa strains PAO1, 33356, 6294, 6077; test: P. aeruginosa acute pneumonia model, survival; format: in vivo, BALB/c mice; conditions: strain 6077 (O11) 8×10^5 or 6×10^5 CFU; 5 and 1 mg/kg; FIGS. 6E, 6F
Protocol: FIG. 6 (A-G): Survival rates for animals treated with anti-Psl monoclonal antibodies Cam-003 or WapR-004 in a P. aeruginosa acute pneumonia model. (A-D) Animals were treated with Cam-003 at 45, 15, and 5 mg/kg and R347 at 45 mg/kg or PBS 24 hours prior to intranasal infection with (A) PAO1 (1.6×10^7 CFU), (B) 33356 (3×10^7 CFU), (C) 6294 (7×10^6 CFU), (D) 6077 (1×10^6 CFU). (E-F) Animals were treated with WapR-004 at 5 and 1 mg/kg as indicated followed by infection with 6077 at (E) (8×10^5 CFU), or (F) (6×10^5 CFU). Animals were carefully monitored for survival up to 72 hours (A-D) or for 120 hours (E-F). (G) Animals were treated with Cam-003 at 15 mg/kg or 5 mg/kg, or R347 at 15 mg/kg 24 hours prior to intranasal infection with PAO1 (4.4×10^7 CFU), and Cam-003 at 15 mg/kg 24 hours prior to intranasal infection with PAO1ΔpslA (3×10^7 CFU). In all experiments, PBS and R347 served as negative controls. Results are represented as Kaplan-Meier survival curves; differences in survival were calculated by the Log-rank test for Cam-003 vs. R347. (A) Cam-003 (45 mg/kg—P<0.0001; 15 mg/kg—P=0.0003; 5 mg/kg—P=0.0033). (B) Cam-003 (45 mg/kg—P=0.0012; 15 mg/kg—P=0.0012; 5 mg/kg—P=0.0373). (C) Cam-003 (45 mg/kg—P=0.0007; 15 mg/kg—P=0.0019; 5 mg/kg—P=0.0212). (D) Cam-003 (45 mg/kg—P<0.0001; 15 mg/kg—P<0.0001; 5 mg/kg—P=0.0001). Results are representative of at least two independent experiments. […]

[3] = test system: P. aeruginosa strains PAO1, 33356, 6294, 6077, 6206; test: Acute pneumonia model, organ burden; format: in vivo, BALB/c mice; conditions: 6294 (O6) and 6206 (O11); FIGS. 7E, 7F
Protocol: Antibodies or PBS were administered 24 hours before infection in each model. P. aeruginosa acute pneumonia, keratitis, and thermal injury infection models were performed as described (DiGiandomenico, A., et al., Proc Natl Acad Sci USA 104, 4624-4629 (2007)), with modifications. In the acute pneumonia model, BALB/c mice (The Jackson Laboratory) were infected with P. aeruginosa strains suspended in a 0.05 ml inoculum. In the thermal injury model, CF-1 mice (Charles River) received a 10% total body surface area burn with a metal brand heated to 92° C. for 10 seconds. Animals were infected subcutaneously with P. aeruginosa strain 6077 at the indicated dose. For organ burden experiments, acute pneumonia was induced in mice followed by harvesting of lungs, spleens, and kidneys 24 hours post-infection for determination of CFU.

B1: WapR-004: anti-Psl antibody, VH SEQ ID NO: 11 and VL SEQ ID NO: 12 (antibody, V domains shown)
VH: EVQLLESGPGLVKPSETLSLTCNVAGGSISPYYWTWIRQPPGKGLELIGYIHSSGYTDYNPSLKSRVTISGDTSKKQFSLHVSSVTAADTAVYFCARGDWDLLHALDIWGQGTLVTVSS
VL: EIVLTQSPSSLSTSVGDRVTITCRASQSIRSHLNWYQQKPGKAPKLLIYGASNLQSGVPSRFSGSGSGTDFTLTISSLQPEDFATYYCQQSYSFPLTFGGGTKLEIK
modifications: WapR-004 VH; WapR-004 & WarR-004RAD VL
In the case of B1, the “OPK activity (concentration dependent killing)” value [1] is reported as “superior OPK activity”, the survival [2] is reported as “significant concentration-dependent survival” and the “dissemination to the spleen and kidneys” value [3] is reported as “effective at reducing P. aeruginosa dissemination to the spleen and kidneys”. For the same molecule, the organ burden [3] was “reduced organ burden”.
